The test system of data set [1] is MBP. Put plainly: Kinase activity assay during purification of p48 SIP kinase (MBP substrate). Format: biochemical. Here is the method: All purification procedures were carried out in a cold room or in a 4° C. chamber. Protein extract from about 200 grams of SA-treated cells was first fractionated by (NH4)2 SO4 precipitation. Saturated ammonium sulfate solution was slowly added to total protein extract to 30% of final concentration. After slowly stirring for 30 minutes, the precipitate was collected by centrifugation at 23,000×gfor 10 minutes. The pellets were then dissolved in a total of 30 mL of buffer A (25 mM Tris, pH 7.5, 1 mM EGTA, 10 mM β-glycerolphosphate, 0.1 mM Na3 VO4, 1 mM DTT, 5% glycerol) plus 1 mM phenylmethylsulfonyl fluoride, 5 μg/mL each of antipain, aprotinin, and leupeptin. […]
Unless specifically indicated, assays were performed at room temperature for 20 minutes in a final volume of 15 μl containing 0.5 mg/mL of MBP, 50 μM of γ-^32 P-ATP (about 3000-6000 cpm/pmole), 25 mM Tris pH 7.5, 5 mM MgCl2, 1 mM EGTA, 1 mM DTT, and enzyme. […] After washing with 150 mM H3 PO4 extensively, the phospho-protein was eluted with 0.4 mL of 1 N NaOH, and the radioactivity was determined by liquid scintillation counting. Total cpm in the reaction mixture was also determined in order to calculate the specific activity of the enzyme preparation. […]

The next data set concerns the target T1, p48 SIP kinase (Nicotiana tabacum, UniProt A0A1S3Z5Y0).
T1 construct: endogenous in cells; host or cells: SA-treated tobacco suspension culture cells (purified through the poly-L-lysine agarose step)
Put plainly: Kinetic properties, substrates, cofactors and pH dependence of p48 SIP kinase (in-solution kinase assay). Format: biochemical, tobacco. The settings on record: pH of 5.5 or 10. Here is the method:
FIGS. 10A and 10B show a pair of graphs illustrating the effect of pH (FIG. 10A), Mg^2+ and Mn^2+ (FIG. 10B) on p48 SIP kinase activity. Approximately 0.5 unit of partially purified enzyme was used in each test. Buffers used for measuring the effect of pH were 50 mM 2-[N-morpholino]ethanesulfonic acid (Mes, pH 5.0-8.0, .circle-solid.), 50 mM Tris (pH 6.0-9.5, .tangle-solidup.), and 50 mM 3-[cyclohexylamino]-1-propanesulfonic acid (Caps, pH 9.0-12.0, .box-solid.). For testing the effects of Mg^2+ (.circle-solid.), and Mn^2+ (.tangle-solidup.), buffer B from the last purification step was first exchanged to Mg^2+ -free buffer using a desalting column. Mg^2+ was not added in reactions for testing the effect of Mn^2+.
FIG. 11 is a graph depicting the protein substrate preference of the p48 SIP kinase. About 0.5 unit of partially purified enzyme was used in each reaction. The assay conditions were as described below in Example 1, except various concentrations of MBP (.circle-solid.), histone (.tangle-solidup.), and casein (.box-solid.) were used.
Unless specifically indicated, assays were performed at room temperature for 20 minutes in a final volume of 15 μl containing 0.5 mg/mL of MBP, 50 μM of γ-^32 P-ATP (about 3000-6000 cpm/pmole), 25 mM Tris pH 7.5, 5 mM MgCl2, 1 mM EGTA, 1 mM DTT, and enzyme. The reaction was terminated by the addition of equal volume of 150 mM H3 PO4. Twenty μL of the mixture was spotted onto an 8-well phosphocellulose filter strip (Pierce, Ill.). After washing with 150 mM H3 PO4 extensively, the phospho-protein was eluted with 0.4 mL of 1 N NaOH, and the radioactivity was determined by liquid scintillation counting. Total cpm in the reaction mixture was also determined in order to calculate the specific activity of the enzyme preparation. One unit of p48 SIP kinase was defined as the amount of enzyme that will catalyze the transfer of 1 pmole of phosphate from ATP to MBP in 1 minute.

For data set [2], the system named is MBP. Put plainly: Basal phosphorylation activity of recombinant SIP kinase produced in E. coli. Type of data set: biochemical. The settings on record: recombinant protein from E. coli. From the text:
A tobacco clone that encodes an exemplary SIP kinase of the invention is described in detail herein. The nucleotide sequence of a cDNA encoding tobacco SIP kinase is set forth below as Sequence I.D. No. 1. It is believed that Sequence I.D. No. 1 constitutes a full-length SIP kinase-encoding clone as it contains a suitable methionine for initiation of translation.
Optionally, transgenic plants would be created containing mutations in the region encoding the active site of SIP kinase. This embodiment is preferred over the use of anti-sense constructs due to the very high homology between MAP kinases. For example, a mutated p48 SIP kinase with a Lys to Arg change in the kinase subdomain II has been made, and could be introduced into wild tobacco plants. […] Since the mutant p48 kinase would still serve as the substrate for upstream MAP kinase kinase and physically compete with the wild-type p48 SIP kinase, but would not transduce signal to downstream components, it may be possible to specifically block the pathway without affecting other MAP kinase cascades.

T1 sequence (A0A1S3Z5Y0 whole entry): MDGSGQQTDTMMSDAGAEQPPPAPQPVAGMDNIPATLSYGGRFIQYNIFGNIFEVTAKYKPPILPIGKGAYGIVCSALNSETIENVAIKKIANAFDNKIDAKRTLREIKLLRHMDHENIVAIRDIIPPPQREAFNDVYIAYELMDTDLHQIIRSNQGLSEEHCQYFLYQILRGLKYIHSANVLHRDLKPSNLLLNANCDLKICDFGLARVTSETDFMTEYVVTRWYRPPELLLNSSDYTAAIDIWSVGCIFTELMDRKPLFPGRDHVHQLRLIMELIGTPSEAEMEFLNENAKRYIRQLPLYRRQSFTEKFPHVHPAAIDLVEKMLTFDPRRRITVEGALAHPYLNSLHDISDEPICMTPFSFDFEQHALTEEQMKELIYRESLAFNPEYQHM

B1: p48 SIP kinase: novel protein kinase isolated from tobacco, activated by salicylic acid; Sequence I.D. No. 2 (protein)
chain: MDGSGQQTDTMMSDAGAEQPPTAPQPVAGMDNIPATLSHGGRFIQYNIFGNIFEVTAKYKPPILPIGKGAYGIVCSALNSETIENVAIKKIANAFDNKIDAKRTLREIKLLRHMDHENIVAIRDIIPPPQREAFNDVYIAYELMDTDLHQIIRSNQGLSEEHCQYFLYQILRGLKYIHSANVLHRDLKPSNLLLNANCDLKICDFGLARVTSETDFMTEYVVTRWYRPPELLLNSSDYTAAIDVWSVGCIFMELMDRKPLFPGRDHVHQLRLIMELIGTPSEAEMEFLNENAKRYIRQLPLYRRQSFTEKFPHVHPTAIDLVEKMLTFDPRRRITVEGALAHPYLNSLHDISDEPICMTPFSFDFEQHALTEEQMKELIYRESLAFNPEYQHM
modifications: phosphorylated on tyrosine residue(s); serine/threonine phosphorylation also required for activity; positions not given
As for B1, the “specific activity” value worked out at 339600.0 pmol/min/mg in the data set on MBP [1] (Superdex 200 HR 10/30 fraction) and 340000 pmol/min/mg in the data set on MBP [1] (final purified enzyme). For the same molecule, the retained kinase activity entry with p48 SIP kinase is “more than 50%”. For the same molecule, in the data set on MBP [2], the “phosphorylation of MBP / basal phosphorylation activity” value is “phosphorylates MBP”.

The values are drawn from patent US5977442A, “Salicylic acid induced map kinase and its use for enhanced disease resistance in plants” (priority 1997, dated 1999).
